The supplement of paper PMC9112550, “Optimization of the antimicrobial peptide Bac7 by deep mutational scanning” (BMC Biology, 2022)

Tested on: Escherichia coli TOP10
Experiment: shrunken log2 fold change of peptide-encoding DNA abundance (4.5 h post-induction vs induction); higher = less antimicrobial activity (less host growth inhibition)
Details: time post-induction: 4.5 h; library: site-saturation at positions 5, 18, 19, 20
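Also: peptides expressed intracellularly from a pBAD plasmid library in pooled LB shake-flask culture, induced with 0.3% L-arabinose, DNA abundance read by NGS, three biological replicates, DESeq2 with apeglm shrinkage.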

Sequence	shrunken log2 fold change
RRIRLRPPRLPRPRPRPWYMPRP	-0.0481
RRIRWRPPRLPRPRPRPNNGPRP	-0.165
RRIRIRPPRLPRPRPRPPTCPRP	-0.278
RRIRPRPPRLPRPRPRPDMWPRP	-0.103
RRIRDRPPRLPRPRPRPLYQPRP	-0.0432
RRIRSRPPRLPRPRPRPLELPRP	0.12
RRIRVRPPRLPRPRPRPSRSPRP	0.0405
RRIRKRPPRLPRPRPRPQKSPRP	0.0653
RRIRPRPPRLPRPRPRPKQDPRP	0.0659
RRIRNRPPRLPRPRPRPDEVPRP	-0.00973
RRIRSRPPRLPRPRPRPNSGPRP	0.0845
RRIRPRPPRLPRPRPRPCLAPRP	-0.109
RRIRERPPRLPRPRPRPVTRPRP	-0.0559
RRIRRRPPRLPRPRPRPKWYPRP	0.0824
RRIRLRPPRLPRPRPRPSAEPRP	0.342
RRIRTRPPRLPRPRPRPIAMPRP	-0.387
RRIRERPPRLPRPRPRPMGIPRP	-0.113
RRIRERPPRLPRPRPRPCVEPRP	-0.11
RRIRYRPPRLPRPRPRPRWTPRP	0.2
RRIRTRPPRLPRPRPRPGWVPRP	-0.0236

Sequence	shrunken log2 fold change
RRIRFRPPRLPRPRPRPRTAPRP	0.162
RRIRNRPPRLPRPRPRPKATPRP	-0.0881
RRIRIRPPRLPRPRPRPECTPRP	-0.0501
RRIRCRPPRLPRPRPRPIISPRP	-0.346
RRIRGRPPRLPRPRPRPRDGPRP	1.27
RRIRERPPRLPRPRPRPYCDPRP	-0.0156
RRIRKRPPRLPRPRPRPIFKPRP	0.307
RRIRIRPPRLPRPRPRPSEMPRP	-0.553
RRIRLRPPRLPRPRPRPQFVPRP	-0.0035
RRIRPRPPRLPRPRPRPKWPPRP	-0.0466
RRIRVRPPRLPRPRPRPFRCPRP	-0.123
RRIRRRPPRLPRPRPRPIGQPRP	0.182
RRIRLRPPRLPRPRPRPPIHPRP	-0.117
RRIRGRPPRLPRPRPRPMFVPRP	0.39
RRIRRRPPRLPRPRPRPYVDPRP	-0.102
RRIRNRPPRLPRPRPRPTYGPRP	-0.0506
RRIRIRPPRLPRPRPRPEETPRP	-0.00208
RRIRSRPPRLPRPRPRPTAVPRP	0.466
RRIRMRPPRLPRPRPRPHWVPRP	-0.0142
RRIRVRPPRLPRPRPRPQMAPRP	-0.302

Sequence	shrunken log2 fold change
RRIRTRPPRLPRPRPRPLVIPRP	-0.44
RRIRWRPPRLPRPRPRPIKLPRP	-0.216
RRIRERPPRLPRPRPRPCWHPRP	-0.523
RRIRHRPPRLPRPRPRPMNSPRP	-0.214
RRIRRRPPRLPRPRPRPAAMPRP	0.516
RRIRQRPPRLPRPRPRPESVPRP	0.00473
RRIRDRPPRLPRPRPRPPQYPRP	-0.0943
RRIRCRPPRLPRPRPRPFMTPRP	-0.737
RRIRVRPPRLPRPRPRPQTPPRP	0.546
RRIRGRPPRLPRPRPRPFTEPRP	0.104
RRIRCRPPRLPRPRPRPAEIPRP	-0.0903
RRIRARPPRLPRPRPRPVDKPRP	0.363
RRIRIRPPRLPRPRPRPNTLPRP	-0.818
RRIRWRPPRLPRPRPRPQMQPRP	0.0894
RRIRQRPPRLPRPRPRPANTPRP	-0.118
RRIRLRPPRLPRPRPRPYASPRP	0.000498
RRIRVRPPRLPRPRPRPIYMPRP	-0.438
RRIRYRPPRLPRPRPRPRSNPRP	0.00328
RRIRQRPPRLPRPRPRPGRFPRP	0.363
RRIRTRPPRLPRPRPRPWRMPRP	-0.139
